± gives the uncertainty stated by the source.

A short description of the series: amyloid nucleation score (Sup35N fusion, yeast selection) (log enrichment); library NNK1; higher = more nucleation; inactive = no reads after selection. In outline:
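On medium lacking adenine and uracil, psi-negative yeast expressing peptides of 20 random codons fused to Sup35N were grown 7 days at 30°C after a 24-hour induction with 100 μM copper sulfate. Illumina sequencing of input and output plasmid inserts gave the reads, and sequences under 100 input reads were excluded. The nucleation score is the DiMSum log enrichment of output over input reads, centred on the mode score of non-aggregating sequences.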
For VLFIFRSRFNVE, the amyloid nucleation score was found to be 3.47 ± 0.11.

GGTSRLQDVDAALTGTWVSP yielded an amyloid nucleation score of 0.042 ± 0.37. The value for VSCWLQISDLRAVAWPLRSF was 0.588 ± 0.21; that for VKLTNLGFRGKFDVVDCHWI was -0.546 ± 0.34; that for DILDSH was -0.824 ± 0.38. With YKFCVILSNGRQCVMALVRP, the amyloid nucleation score turned out to be 0.286 ± 1.2. The value for AFGMSLGG was 0.225 ± 0.65; that for GICLIAVVRGLIERGNGETE was 0.206 ± 1.1; that for QHHSRRMNLGC was -0.407 ± 0.32. The value for KKRPRYRRWTS was 0.578 ± 0.52; that for LCAFLPVRTVKLCAFRIFDR was -1.06 ± 0.85; that for MIKYYYGSGTLS was -0.429 ± 0.34. The value for FIRVMRA was “inactive”; that for HEGMLPIDVLRHSRPRQPFV was -0.686 ± 0.83; that for VWFNPYLNDRSREGGRVVWM was 0.099 ± 0.27. For the substance DVLVHLP, the amyloid nucleation score was -0.917 ± 1.2. The value for SFSSPHLPYTCGSSIG was 0.258 ± 0.66; that for RMHYIG was 0.106 ± 0.43. Under NARWSGISFQC stands -0.115 ± 0.87; under CGEFGR, -0.682 ± 0.52; under FRICYCWFGGEKDHRNFQIG, 3.86 ± 0.06.

In turn, WFGTHCVLSYVSTFWSLQSV showed an amyloid nucleation score of -0.275 ± 0.24. Under KSMMDMSYLMEYIGI stands -2.65 ± 2.4; under LMTNKKNVMMRRIHTGVASN, 0.368 ± 0.97.

For YWDKNFHYMCVARLFIVRLC, the amyloid nucleation score came to 0.091 ± 0.7. On to TIFVYSKTNL, for which the amyloid nucleation score came to 2.64 ± 0.18. In the case of GSERPNPV, the amyloid nucleation score stood at 0.958 ± 0.63. VTIHETCRVWRFVRTDRRWG: the amyloid nucleation score came to 0.553 ± 0.46. Regarding SLNVNLMSRVYSSAREGGVS, the amyloid nucleation score stood at 1.73 ± 0.2. The value for VRWDPVRRIWFALR was “inactive”; that for FFFALFFQRSTTRGWLSGQL was 0.91 ± 0.62. The value for QNMLDWLKLGLYYHNFQAWV was -0.94 ± 2.7; that for DKTKLLLTLRNWLSP was 0.177 ± 0.56; that for ELGYSTHCIMS was -0.735 ± 0.66. The value for LRTNTWCYGESSRLWGWCGG was 0.067 ± 1.2. On to LGYRPWFWTTAFSSLADLAR, for which the amyloid nucleation score is -0.907 ± 1.3.

The substance LQRGQVLALADSRFCVRCSR returned an amyloid nucleation score of 1.02 ± 0.57. The substance RMLTARNGLGMMRL gave an amyloid nucleation score of -0.162 ± 1.1. The value for ELKQIKVGRSLWRMVRRMGD was 1.37 ± 0.36; that for AARELKIVTRVMHFDADREA was 0.103 ± 0.43; that for QYGWCIAYSLELCSLSPNLI was 0.326 ± 0.37. RNSRAMIFEMHVVGLWWQSC came in with an amyloid nucleation score of -0.538 ± 2.1.

DARLFDFYFANLVSSQGNCF returned an amyloid nucleation score of 1.09 ± 0.56. The value for GVDMRYFGPYAGYADYSKSR was -0.846 ± 0.44; that for MGLQTFVVTRMV was -0.758 ± 0.42; that for QHCRA was 0.639 ± 0.88. Under NFMIMKSCDRSSLCHFMSYC stands 7.436 ± 0.069; under CECHPFHPRVLVYGRYRFNP, 0.033 ± 0.38; under FTVGYGSYGLT, 0.306 ± 0.54. Under IFLVCVSKN stands 0.601 ± 0.35; under FRSLSSGIFGACWWYMFYSM, 0.229 ± 0.6; under RTEVIKMNLG, -0.085 ± 0.42. In turn, KICTYSRFC returned an amyloid nucleation score of 0.848 ± 0.39.

As for DSDGFQRVPD, the amyloid nucleation score was -0.736 ± 0.68. The value for YDEGWANT was 0.048 ± 1.5; that for ACMRCFGNICSLWSVKGN was 7.417 ± 0.052; that for LAHWHFNWSRILQCFYW was 3.08 ± 0.095. The value for IAAVQ was 0.162 ± 0.89; that for TNFYAVFLLLGGSGF was 7.171 ± 0.051; that for VAGFPVEDRLRQISSWAVSG was -1.07 ± 0.62.

As for HIIQNLV, the amyloid nucleation score was found to be 0.25 ± 0.77. Under TDYSFKLFTFFSSESNGFPI stands -1.01 ± 1; under LLIGYWLNLECLRYEMCHVL, -0.396 ± 0.66. The value for ILGQYGALYSIGTHWFLFVI was -0.755 ± 0.37; that for GILMVELWSRR was 2.56 ± 0.18. The value for TSPGRYFCRLHVLHSGM was -0.468 ± 1.9; that for GKHLTRNAWGRLSLVTDCVR was 0.486 ± 0.5. As to LTMCSGICEVIRQARDHHYR, the amyloid nucleation score is 0.149 ± 0.97. Under GFSILAPSKYVVNYWMHPQS stands 7.691 ± 0.049; under ILHIEDAVMADWMHILMGSR, 0.571 ± 0.35.

Consider RVDHVGRGQSREGGPDAGRV, for which the amyloid nucleation score amounted to 0.217 ± 0.26. Consider RMLLENVSVKRR, for which the amyloid nucleation score stood at 0.678 ± 0.66.

Turning to YRFKFGVKWLAPNFLPAFGY, the amyloid nucleation score result was “inactive”. The value for KRIDDYAKFRC was “inactive”. As to SWMSRKEENSGLILVAVYLV, the amyloid nucleation score was determined as 1.29 ± 0.76. The value for SDVWGWWGRSRVTADYFADV was -1.17 ± 1.7; that for GMAVNGYHSLRGKVLEDVGN was -0.289 ± 0.79; that for CVNQWILVPGRAF was “inactive”. The value for WFCVHKTVSLDMASVDRKGQ was 4.8 ± 0.088; that for FSYNVVLRFSLRISSNYFAS was -1.12 ± 0.86; that for VKDASFRFAQQEGMRLRMQS was 0.503 ± 0.38. Under RNSMGLLAVEDVC stands -1.16 ± 0.61; under YCNLIRFKFCVNSCCMSSSL, 5.64 ± 0.078.

For the substance AIFVCNH, the amyloid nucleation score was found to be 0.229 ± 0.5. Under VRVPCDIAIYMYGGLKALLS stands -0.245 ± 1.3.

With GQRLLL, the amyloid nucleation score is 1.07 ± 0.56. Under HFTCRTLITGSYSVTTLNVS stands 5.23 ± 0.061; under SSGHSVRVDNKTGVWVWPVG, -0.329 ± 1.6; under KFIDFERLFSLRGWSVCNER, 0.889 ± 0.24. In turn, LRPYFLGCRRSKKPKALLAG returned an amyloid nucleation score of 0.252 ± 0.8.

On to RVKYAGGPIGYLFCLWVLCW, for which the amyloid nucleation score is -0.895 ± 1.5. The value for GSPVCTRRRPASLPPLRQVH was 0.208 ± 0.45. Under MLSGSVAESKNLIQLCAFFM stands 6.704 ± 0.047; under GGYVLPYSLFFGVPSIAFVG, 0.602 ± 0.7.

As for NAFCHAYSI, the amyloid nucleation score is -1.49 ± 1.2. The value for LADDHE was 0.229 ± 0.93; that for HNFEFFMGQGMIFWCRLTEN was 1.24 ± 0.56. Turning to ILLPWGMCWWMLCR, the amyloid nucleation score came to 0.036 ± 0.55. Under SGHDGARVVMRRILYTSKSG stands 0.291 ± 0.34; under SGAVCIQALKVDTQCFADMI, -0.413 ± 0.38; under MISMFSLFLIRMIM, -0.052 ± 0.54.

As to EIHGCGCPLSKDGGGAFMWA, the amyloid nucleation score was 1.22 ± 0.63. Under RCCYCLGLFVWATCVGGVRT stands 3.1 ± 0.24; under AAKRM, 1.11 ± 0.52; under IVYLSCFVRCP, 0.379 ± 0.56.

The values are drawn from the supplement of paper PMC12042874.
